For experiment [1], the target named is human IL-12RB2 with C-terminal HA tag, transiently expressed on HEK-293T cells (human) (UniProt Q99665). The experiment is described as follows: FACS, periplasmic extract, HEK-293T.
Experiment [2] addresses human IL-12Rβ2-huFc-his (R&D system), biotinylated (human) (UniProt Q99665). Kind of experiment: ELISA, periplasmic extract. A general note: ELISA stands for enzyme-linked immunosorbent assay.
For experiment [3], the target named is cyno IL-12RB2 with C-terminal HA tag, transiently expressed on HEK-293T cells (cyno). The experiment is described as follows: FACS, periplasmic extract, HEK-293T. (A flow cytometer gives signals particle by particle.)
Chain of cyno IL-12RB2 with C-terminal HA tag, transiently expressed on HEK-293T cells (cyno) (chain, as listed by the source): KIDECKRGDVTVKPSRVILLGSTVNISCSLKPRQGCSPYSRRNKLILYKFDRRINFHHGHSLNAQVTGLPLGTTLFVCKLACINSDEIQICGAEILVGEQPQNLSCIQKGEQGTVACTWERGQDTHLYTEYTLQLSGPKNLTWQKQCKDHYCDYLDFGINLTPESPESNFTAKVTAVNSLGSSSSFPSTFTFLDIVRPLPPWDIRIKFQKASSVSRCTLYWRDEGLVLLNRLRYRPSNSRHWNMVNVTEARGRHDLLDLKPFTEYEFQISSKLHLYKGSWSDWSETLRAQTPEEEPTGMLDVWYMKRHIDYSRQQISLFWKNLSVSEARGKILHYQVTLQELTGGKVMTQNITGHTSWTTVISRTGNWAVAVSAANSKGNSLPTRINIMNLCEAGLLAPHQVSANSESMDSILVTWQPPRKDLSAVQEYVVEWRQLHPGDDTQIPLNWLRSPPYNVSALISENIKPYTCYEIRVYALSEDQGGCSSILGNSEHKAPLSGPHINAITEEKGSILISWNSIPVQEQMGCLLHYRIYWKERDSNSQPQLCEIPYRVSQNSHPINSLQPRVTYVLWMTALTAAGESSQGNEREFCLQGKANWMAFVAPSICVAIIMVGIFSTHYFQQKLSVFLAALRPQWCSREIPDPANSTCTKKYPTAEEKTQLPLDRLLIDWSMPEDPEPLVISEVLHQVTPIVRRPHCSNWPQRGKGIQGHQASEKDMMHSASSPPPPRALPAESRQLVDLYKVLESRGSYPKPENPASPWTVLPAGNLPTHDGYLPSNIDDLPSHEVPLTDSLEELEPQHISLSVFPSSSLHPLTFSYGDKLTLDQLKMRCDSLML

Our source for the FOB and OD450 nm values is patent US20250019450A1.

Chain of human IL-12Rβ2-huFc-his (R&D system), biotinylated (human) (Q99665 24-622 limits assumed): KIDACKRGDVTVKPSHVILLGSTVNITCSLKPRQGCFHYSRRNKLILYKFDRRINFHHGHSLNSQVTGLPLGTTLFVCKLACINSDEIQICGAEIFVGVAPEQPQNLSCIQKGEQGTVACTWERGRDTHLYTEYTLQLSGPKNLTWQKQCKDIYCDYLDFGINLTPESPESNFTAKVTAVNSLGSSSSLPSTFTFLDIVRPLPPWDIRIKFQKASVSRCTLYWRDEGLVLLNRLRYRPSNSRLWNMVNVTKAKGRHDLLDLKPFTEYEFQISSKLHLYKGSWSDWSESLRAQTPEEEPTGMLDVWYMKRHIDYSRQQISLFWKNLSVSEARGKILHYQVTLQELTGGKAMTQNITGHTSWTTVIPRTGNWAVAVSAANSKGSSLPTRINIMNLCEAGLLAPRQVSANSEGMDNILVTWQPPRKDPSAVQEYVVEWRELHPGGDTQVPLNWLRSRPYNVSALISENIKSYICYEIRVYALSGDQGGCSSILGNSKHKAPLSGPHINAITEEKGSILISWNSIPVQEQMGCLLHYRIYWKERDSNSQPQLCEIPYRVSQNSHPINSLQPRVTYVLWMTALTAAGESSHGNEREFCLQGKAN
Chain of human IL-12RB2 with C-terminal HA tag, transiently expressed on HEK-293T cells (human) (Q99665 24-862): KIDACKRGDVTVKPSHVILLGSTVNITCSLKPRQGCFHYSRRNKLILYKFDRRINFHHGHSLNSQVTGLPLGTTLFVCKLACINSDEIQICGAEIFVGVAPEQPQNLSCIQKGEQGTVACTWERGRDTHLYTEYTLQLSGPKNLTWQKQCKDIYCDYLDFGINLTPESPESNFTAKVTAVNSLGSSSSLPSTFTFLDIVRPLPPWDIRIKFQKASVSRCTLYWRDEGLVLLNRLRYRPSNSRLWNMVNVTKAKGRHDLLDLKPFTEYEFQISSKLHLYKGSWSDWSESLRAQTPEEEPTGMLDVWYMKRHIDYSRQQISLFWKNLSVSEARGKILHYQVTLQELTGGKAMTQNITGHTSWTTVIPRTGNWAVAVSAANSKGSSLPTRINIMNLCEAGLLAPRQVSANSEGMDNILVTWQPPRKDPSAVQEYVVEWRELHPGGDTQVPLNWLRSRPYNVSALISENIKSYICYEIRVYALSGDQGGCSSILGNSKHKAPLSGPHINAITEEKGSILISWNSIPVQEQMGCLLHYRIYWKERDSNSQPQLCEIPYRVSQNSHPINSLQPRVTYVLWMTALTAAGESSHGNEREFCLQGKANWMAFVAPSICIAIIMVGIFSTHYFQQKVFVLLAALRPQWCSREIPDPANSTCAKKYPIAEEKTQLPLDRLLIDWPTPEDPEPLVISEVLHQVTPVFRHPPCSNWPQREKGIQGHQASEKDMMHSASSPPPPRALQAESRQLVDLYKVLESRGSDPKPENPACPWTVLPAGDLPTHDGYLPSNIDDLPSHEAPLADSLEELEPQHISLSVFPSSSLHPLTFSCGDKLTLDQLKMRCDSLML

B1: VHH93B2 (VHH)
VHH: QVQLVESGGGLVQPGGSLRLSCAASGFTFEPYDMSWFRQAPGKGPEWVSAIDKGGGAGATYYADSVKGRFTISRDNAKKTLYLQMKSLKPEDTAVYYCAITAGPYSDSTPRVAYRGEGTQVTVSS
For the molecule B1, the FOB in experiment [1] was 1.98 fold.

B2: VHH229B2 (VHH)
VHH: QVQLVESGGGLVQAGGSLRLSCAASGRTFSSYAMGWFRQAPGKEREFVSAISWNGGSRYYVESVEGRFTISRDNAKNTVYLQMNSLKPEDTAVYYCAASRIYTNYVARSYEYDDWGQGTQVTVSS
With B2, the OD450 nm in experiment [2] worked out at 0.138.

B3: VHH230B2 (VHH)
VHH: QVQLVESGGGLVQAGGSLRLSCAASGRTFSSYAMGWFRQAPGKEREFVSAISWSGLSTYYVESVQGRFTISRDNAKNTVYLQMNSLKPEDTAVYYCAASRIYTNYVARSYEYDDWGQGTQVTVSS
For B3, in experiment [3], the FOB is 1.66 fold.

B4: VHH216B2 (VHH)
VHH: QVQLVESGGGLVQPGGSLRLSCATSEHTFGTYRMGWFRQAPGKEREFVAGISWTGQTTYYAASVKGRFAISKDNAKNTVYLQMNTLKSDDTAVYYCAVETNNLGRWDRPSEYDYWGQGTQVTVSS
In experiment [2], B4 gave an OD450 nm of 0.586. For the same molecule, in experiment [1], the FOB turned out to be 0.99 fold.

B5: VHH356B2 (VHH)
VHH: QLQLVESGGGLVQPGGSLRLSCAASGSIFSINAMGWYRQAPGKQRELVAAITSGGSTAYADSVKGRFTISRDNAKNTVYLQMNSLKPEDTAVYYCNADRDPITSWYVRGDYWGQGTQVTVSS
In experiment [3], B5 yielded an FOB of 2 fold.

B6: VHH211B2 (VHH)
VHH: QVQLVESGGGLVQAGNSLRLSCAASGRTFSSYVVGWFRQAPGKEREFVGRISWSGARTYYADSVKGRFTISRDNAKNTVYLQMNSLKPEDTAVYYCAADLKWEVLLSEHFEYWGQGTQVTVSS
In turn, B6 registered an OD450 nm in experiment [2] of 0.227.

B7: VHH219B2 (VHH)
VHH: QVQLEESGGGLVQAGGSLRLSCAASGRTFSSYVVGWFRQAPGKEREFVGRISWSGARTYYADSVEGRFTISRDNAKNTVYLQMNSLKPEDTAVYYCAADLKWEVLLSEHYEYWGQGTQVTVSS
Molecule B7 returned an FOB in experiment [1] of 1.54 fold.

B8: VHH241B2 (VHH)
VHH: QVQLVESGGGLVQLGDSLRLSCAASGRGFSSWTMAWFRQALGKRREFVAAITATGARTCSAESEGRFTISRDNAKNMVFLQMNSLKAEDTAVYYCAATGIASWDPGMADKYTYWGQGTQVTVSS
Turning to B8, the OD450 nm in experiment [2] stood at 0.139. The molecule further registered an FOB in experiment [1] of 1.63 fold.

B9: VHH277B2 (VHH)
VHH: QVQLVESGGGLVQLGDSLRLSCAASGRGFSSWTMAWFRQALGKRREFVAAITATGARTCSAESEGRFTISRDNAKNMVFLQMNSLKAEDTAVYYCAATEIAGWDPGMGDKYPYWGQGTQVTVSS
For the molecule B9, the OD450 nm in experiment [2] is 0.137.
